Data reported in US20260191957A1 (NOVATIM IMMUNE THERAPEUTICS ZHEJIANG, published 2026).
Numbering of substitutions follows the chain as printed.

T1: CD19 on Nalm6-luc tumor cells (CD19+BCMA-) (UniProt P15391 20-556, limits assumed)
T1 sequence (looked up): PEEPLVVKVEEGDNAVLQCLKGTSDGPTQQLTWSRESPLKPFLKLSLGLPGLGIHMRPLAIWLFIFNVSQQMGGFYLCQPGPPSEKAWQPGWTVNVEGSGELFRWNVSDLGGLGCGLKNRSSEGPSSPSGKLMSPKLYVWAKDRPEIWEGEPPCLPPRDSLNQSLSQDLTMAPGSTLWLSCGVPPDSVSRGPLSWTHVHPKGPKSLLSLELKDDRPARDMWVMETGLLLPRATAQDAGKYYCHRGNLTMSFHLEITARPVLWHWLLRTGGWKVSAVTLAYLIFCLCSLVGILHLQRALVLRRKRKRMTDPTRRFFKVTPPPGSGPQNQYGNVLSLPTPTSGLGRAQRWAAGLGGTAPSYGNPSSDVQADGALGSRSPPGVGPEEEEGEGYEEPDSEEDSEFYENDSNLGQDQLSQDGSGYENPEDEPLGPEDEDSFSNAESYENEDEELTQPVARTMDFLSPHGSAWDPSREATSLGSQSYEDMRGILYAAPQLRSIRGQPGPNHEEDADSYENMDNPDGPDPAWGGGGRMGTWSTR

B1: B19 CAR (BCMA CAR and CD19-mutant CAR expressed in parallel on T cells) (other)
chain 1: DIVLTQSPPSLAMSLGKRATISCRASESVTILGSHLIHWYQQKPGQPPTLLIQLASNVQTGVPARFSGSGSRTDFTLTIDPVEEDDVAVYYCLQSRTIPRTFGGGTKLEIKGGGGSGGGGSGGGGSQIQLVQSGPELKKPGETVKISCKASGYTFTDYSINWVKRAPGKGLKWMGWINTETREPAYAYDFRGRFAFSLETSASTAYLQINNLKYEDTATYFCALDYSYAMDYWGQGTSVTVSSTTTPAPRPPTPAPTIASQPLSLRPEACRPAAGGAVHTRGLDFACDIYIWAPLAGTCGVLLLSLVITLYCKRGRKKLLYIFKQPFMRPVQTTQEEDGCSCRFPEEEEGGCELRVKFSRSADAPAYQQGQNQLYNELNLGRREEYDVLDKRRGRDPEMGGKPRRKNPQEGLYNELQKDKMAEAYSEIGMKGERRRGKGHDGLYQGLSTATKDTYDALHMQALPPR
chain 2: DIQMTQTTSSLSASLGDRVTISCRASQDISKYLNWYQQKPDGTVKLLIYHTSRLHSGVPSRFSGSGSGTDYSLTISNLEQEDIATYFCQQGNTLPYTFGGGTKLEITGGGGSGGGGSGGGGSEVKLQESGPGLVAPSQSLSVTCTVSGVSLPDYGVSWIRQPPRKGLEWLGVIWGSETTYYNSALKSRLTIIKDNSKSQVFLKMNSLQTDDTAIYYCAKHYYYGGSYAMDYWGQGTSVTVSSIEVMYPPPYLDNEKSNGTIIHVKGKHLCPSPLFPGPSKPFWVLVVVGGVLACYSLLVTVAFIIFWVRSKRSRLLHSDYMFMTPRRPGPTRKHYQPYAPPRDFAAYRSRVKFSRSADAPAYQQGQNQLYNELNLGRREEYDVLDKRRGRDPEMGGKPRRKNPQEGLYNELQKDKMAEAYSEIGMKGERRRGKGHDGLYQGLSTATKDTYDALHMQALPPR
B2: B19-wildtype CAR (BCMA CAR and CD19-wildtype CAR expressed in parallel on T cells) (other)
chain 1: B1 chain 1
chain 2: B1 chain 2 with F322N

Target: T1, CD19 on Nalm6-luc tumor cells …
Experiment: cell-based or functional assay

Row | Binder | tumor cell killing rate, Nalm6-luc, E:T 1:8, 72 h luciferase assay [%] | tumor cell killing rate, Nalm6-luc, E:T 1:16, 72 h luciferase assay [%]
1 | B1 | 71.8 | 49
2 | B2 | 55 | 30.6
